The results in this text go back to US20090191235A1.

In assay [1] the target is 17b antibody. The assay is described as follows: SPR (Biacore); 17b on-rate with CD4 over without CD4. On the technique in general: In SPR one partner is held on a chip, and binding of the other changes the refractive index at the surface.
The target in assay [2] is 2-domain CD4 (UniProt P01730). In words: SPR (Biacore), 2-domain CD4 immobilised, gp120 analyte.
Assay [3] addresses CD4 as used in isothermal titration calorimetry (UniProt P01730). In words: ITC, drawn table of thermodynamic values of CD4-gp120 binding. Background: In ITC the heat of successive injections is recorded.
Assay [4] has the same target. In words: ITC, drawn table of thermodynamic values, column 'Kd (nM) to sCD4'.
The target of assay [5] is 2-domain CD4 (UniProt P01730). The assay is described as follows: ITC, titration of HXBc2 core with sCD4(D1D2) at 37°C, value in the box beside the curve.
For assay [6], the target named is 2-domain CD4 (UniProt P01730). In words: ITC, titration of HXBc2 core with sCD4(D1D2) at 37°C, stoichiometry marked at molar ratio 1.0 (CD4/core gp120).

The term Kd denotes the free concentration of one partner at which half of the binding sites on the other are occupied at equilibrium, for simple one-to-one binding. Regarding “gp120 HXBc2 core, wild type (from UniProt P04578 83-492)”, the CD4 Induction in assay [1] was found to be 79.9. The values for the Kd in assay [2], in assay [4] and in assay [5] were 29.5 nM, 87 nM and 117 nM, respectively. Moreover, the -TΔS in assay [3] and in assay [5] was 40 kcal/mol in each case. Also, the ΔH in assay [3] is -49.7 kcal/mol; in assay [5], -49 kcal/mol. The n in assay [6] was found to be 1.
